{"source": "paper PMC7427332", "about": "“Tuning Transcription Factor Availability through Acetylation-Mediated Genomic Redistribution”", "binders": {"B1": {"name": "TCACGTGA cold competitor (dsDNA)", "DNA 1": "CTAGACTTGTGGAGATCACGTGATGACTTCCTGATTCCT", "DNA 2": "AGGAATCAGGAAGTCATCACGTGATCTCCACAAGTCTAG"}, "B2": {"name": "TCACGTTA cold competitor (dsDNA)", "DNA 1": "CTAGACTTGTGGAGATCACGTTATGACTTCCTGATTCCT", "DNA 2": "AGGAATCAGGAAGTCATAACGTGATCTCCACAAGTCTAG"}, "B3": {"name": "Consensus CLEAR box FA probe (dsDNA)", "DNA 1": "GAGATCACGTGATGAC", "DNA 2": "GTCATCACGTGATCTC"}, "B4": {"name": "M-box FA probe (dsDNA)", "DNA 1": "GAGATCATGTGTTGAC", "DNA 2": "GTCAACACATGATCTC"}, "B5": {"name": "E-box FA probe (dsDNA)", "DNA 1": "GAGACCACGTGTTGAC", "DNA 2": "GTCAACACGTGGTCTC"}}, "key": {"[1]": {"molecular_target": "T1, MITF DNA-binding domain WT (bHLH-LZ) (mouse? (MITF mouse cDNA stated for …, UniProt Q08874 287-403))", "T1 sequence (Q08874 287-403)": "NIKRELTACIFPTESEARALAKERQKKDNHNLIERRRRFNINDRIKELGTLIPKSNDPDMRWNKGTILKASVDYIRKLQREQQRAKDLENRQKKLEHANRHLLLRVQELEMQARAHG", "assay": "competition; competing N5 in EMSA; FA: 10 mM Tris/HCl pH 7.5, 300 mM NaCl, 0.01% Triton X-100, 0.1 mg/mL BSA, 1.33 nM DNA, 25 C, 5 min; EMSA: 25 mM HEPES pH 7.4, 150 mM KCl, 10% glycerol, 200 ug/ml BSA, 5 uM DTT, 20 min, 6% native gel", "conditions": "protein: recombinant; tags: His (Ni-NTA purified; pETM-11 vector); chain copies: 2; blunt"}, "[2]": {"molecular_target": "T2, MITF DNA-binding domain K243R (mouse? (MITF mouse cDNA stated for …, UniProt Q08874 287-403, K350R))", "T2 sequence (Q08874 287-403 K350R)": "as the sequence (Q08874 287-403) above, with K64R counted along it", "assay": "competition; competing N5 in EMSA; FA: 10 mM Tris/HCl pH 7.5, 300 mM NaCl, 0.01% Triton X-100, 0.1 mg/mL BSA, 1.33 nM DNA, 25 C, 5 min; EMSA: 25 mM HEPES pH 7.4, 150 mM KCl, 10% glycerol, 200 ug/ml BSA, 5 uM DTT, 20 min, 6% native gel", "conditions": "protein: recombinant; tags: His (Ni-NTA purified; pETM-11 vector); chain copies: 2; blunt"}, "[3]": {"molecular_target": "T3, MITF DNA-binding domain K243Q (mouse? (MITF mouse cDNA stated for …, UniProt Q08874 287-403, K350Q))", "T3 sequence (Q08874 287-403 K350Q)": "as the sequence (Q08874 287-403) above, with K64Q counted along it", "assay": "competition; competing N5 in EMSA; FA: 10 mM Tris/HCl pH 7.5, 300 mM NaCl, 0.01% Triton X-100, 0.1 mg/mL BSA, 1.33 nM DNA, 25 C, 5 min; EMSA: 25 mM HEPES pH 7.4, 150 mM KCl, 10% glycerol, 200 ug/ml BSA, 5 uM DTT, 20 min, 6% native gel", "conditions": "protein: recombinant; tags: His (Ni-NTA purified; pETM-11 vector); chain copies: 2; blunt"}, "[4]": {"molecular_target": "T1, MITF DNA-binding domain WT (bHLH-LZ)", "assay": "competition; competing N5 in EMSA; low-affinity motif; FA: 10 mM Tris/HCl pH 7.5, 300 mM NaCl, 0.01% Triton X-100, 0.1 mg/mL BSA, 1.33 nM DNA, 25 C, 5 min; EMSA: 25 mM HEPES pH 7.4, 150 mM KCl, 10% glycerol, 200 ug/ml BSA, 5 uM DTT, 20 min, 6% native gel", "conditions": "protein: recombinant; tags: His (Ni-NTA purified; pETM-11 vector); chain copies: 2; blunt"}, "[5]": {"molecular_target": "T2, MITF DNA-binding domain K243R", "assay": "competition; competing N5 in EMSA; low-affinity motif; FA: 10 mM Tris/HCl pH 7.5, 300 mM NaCl, 0.01% Triton X-100, 0.1 mg/mL BSA, 1.33 nM DNA, 25 C, 5 min; EMSA: 25 mM HEPES pH 7.4, 150 mM KCl, 10% glycerol, 200 ug/ml BSA, 5 uM DTT, 20 min, 6% native gel", "conditions": "protein: recombinant; tags: His (Ni-NTA purified; pETM-11 vector); chain copies: 2; blunt"}, "[6]": {"molecular_target": "T2, MITF DNA-binding domain K243R", "assay": "fluorescence anisotropy; FA: 10 mM Tris/HCl pH 7.5, 300 mM NaCl, 0.01% Triton X-100, 0.1 mg/mL BSA, 1.33 nM DNA, 25 C, 5 min; EMSA: 25 mM HEPES pH 7.4, 150 mM KCl, 10% glycerol, 200 ug/ml BSA, 5 uM DTT, 20 min, 6% native gel", "conditions": "protein: recombinant; tags: His (Ni-NTA purified; pETM-11 vector); chain copies: 2; label: 3'-fluorescein on strand 1; blunt"}, "[7]": {"molecular_target": "T1, MITF DNA-binding domain WT (bHLH-LZ)", "assay": "fluorescence anisotropy; FA: 10 mM Tris/HCl pH 7.5, 300 mM NaCl, 0.01% Triton X-100, 0.1 mg/mL BSA, 1.33 nM DNA, 25 C, 5 min; EMSA: 25 mM HEPES pH 7.4, 150 mM KCl, 10% glycerol, 200 ug/ml BSA, 5 uM DTT, 20 min, 6% native gel", "conditions": "protein: recombinant; tags: His (Ni-NTA purified; pETM-11 vector); chain copies: 2; label: 3'-fluorescein on strand 1; blunt"}, "[8]": {"molecular_target": "T3, MITF DNA-binding domain K243Q", "assay": "fluorescence anisotropy; FA: 10 mM Tris/HCl pH 7.5, 300 mM NaCl, 0.01% Triton X-100, 0.1 mg/mL BSA, 1.33 nM DNA, 25 C, 5 min; EMSA: 25 mM HEPES pH 7.4, 150 mM KCl, 10% glycerol, 200 ug/ml BSA, 5 uM DTT, 20 min, 6% native gel", "conditions": "protein: recombinant; tags: His (Ni-NTA purified; pETM-11 vector); chain copies: 2; label: 3'-fluorescein on strand 1; blunt"}, "[9]": {"molecular_target": "T3, MITF DNA-binding domain K243Q", "assay": "fluorescence anisotropy; FA: 10 mM Tris/HCl pH 7.5, 300 mM NaCl, 0.01% Triton X-100, 0.1 mg/mL BSA, 1.33 nM DNA, 25 C, 5 min; EMSA: 25 mM HEPES pH 7.4, 150 mM KCl, 10% glycerol, 200 ug/ml BSA, 5 uM DTT, 20 min, 6% native gel", "conditions": "protein: recombinant; tags: His (Ni-NTA purified; pETM-11 vector); chain copies: 2; label: 3'-fluorescein on strand 1; blunt", "remark": "listed apart in the source"}, "[10]": {"molecular_target": "T3, MITF DNA-binding domain K243Q", "assay": "fluorescence anisotropy; FA: 10 mM Tris/HCl pH 7.5, 300 mM NaCl, 0.01% Triton X-100, 0.1 mg/mL BSA, 1.33 nM DNA, 25 C, 5 min; EMSA: 25 mM HEPES pH 7.4, 150 mM KCl, 10% glycerol, 200 ug/ml BSA, 5 uM DTT, 20 min, 6% native gel", "conditions": "protein: recombinant; tags: His (Ni-NTA purified; pETM-11 vector); chain copies: 2; label: 3'-fluorescein on strand 1; blunt", "remark": "listed apart in the source"}}, "data": [{"binder": "B1", "values": [{"measurement": "binding result", "setting": "[1]", "value": "binds"}, {"measurement": "binding result", "setting": "[2]", "value": "binds"}, {"measurement": "binding result", "setting": "[3]", "value": "binds"}]}, {"binder": "B2", "values": [{"measurement": "binding result", "setting": "[4]", "value": "binds"}, {"measurement": "binding result", "setting": "[5]", "value": "binds"}, {"measurement": "binding result", "setting": "[3]", "value": "no binding"}]}, {"binder": "B3", "values": [{"measurement": "binding signal", "setting": "[6]", "value": "~4 fold lower affinity than WT protein on same site"}, {"measurement": "binding result", "setting": "[7]", "value": "binds"}, {"measurement": "binding signal", "setting": "[8]", "value": "~7 fold lower affinity than WT protein on same site"}]}, {"binder": "B4", "values": [{"measurement": "binding signal", "setting": "[6]", "value": "~4 fold lower affinity than WT protein on same site"}, {"measurement": "binding signal", "setting": "[9]", "value": "35 fold lower affinity than WT protein on same site"}]}, {"binder": "B5", "values": [{"measurement": "binding signal", "setting": "[6]", "value": "~4 fold lower affinity than WT protein on same site"}, {"measurement": "binding signal", "setting": "[10]", "value": "21 fold lower affinity than WT protein on same site"}]}]}
